Experimental data published in article PMC12274814, “ATPase-dependent duplex nucleic acid unwinding by SARS-CoV-2 nsP13 relies on facile binding and translocation along single-stranded nucleic acid”.

Tests used:
Details in all cases: protein: recombinant; chain copies: 2; single strand 25 nt
[1] = target: T1, nsP13 helicase (SARS-CoV-2, UniProt P0DTD1 5325-5925); test: competition, 500 nM ssDNA-F, 30 nM nsP13
[2] = target: T1, nsP13 helicase; test: competition, 500 nM ssDNA-F, 30 nM nsP13; 3 mM ATP, 5 mM Mg2+; K1/2 of TrapDNA
[3] = target: T1, nsP13 helicase; test: competition, 500 nM ssDNA-F, 30 nM nsP13; 3 mM ATPgS, 5 mM Mg2+; K1/2 of TrapDNA

B1: TrapDNA (ssDNA)
DNA: TCTAATGTAGTATAGTAATCCGCTC
IC50 [1]: 460 nM
IC50 [2]: 950 nM
IC50 [3]: 3100 nM
